Source: patent US20070192906A1

Target: rice storage protein glutelin B1 (rice) (UniProt P14323)

Substance: pepsin (enzyme)
- degradation by pepsin treatment (Western blot): 90 % degraded
